Experimental data as given in paper PMC11117858, “APPROACH: Sensitive Detection of Exosomal Biomarkers by Aptamer-Mediated Proximity Ligation Assay and Time-Resolved Förster Resonance Energy Transfer”.

Target: CD63 on SH-SY5Y exosomes (UniProt P08962 2-238)
Assay: flow cytometry on exosome-coated microspheres; 200 nM probe; 5 mM Mg2+; about 10^3-fold (printed 103-fold) fluorescence over control and MU-Cy5; 1x PBS, 5 mM MgCl2, 0.2% BSA (w/v), 37 C, 1 h; exosome-coated microspheres blocked with glycine/BSA; pH not stated
Settings: protein: native; label: 3' Cy5

Sequence of CD63 on SH-SY5Y exosomes (P08962 2-238): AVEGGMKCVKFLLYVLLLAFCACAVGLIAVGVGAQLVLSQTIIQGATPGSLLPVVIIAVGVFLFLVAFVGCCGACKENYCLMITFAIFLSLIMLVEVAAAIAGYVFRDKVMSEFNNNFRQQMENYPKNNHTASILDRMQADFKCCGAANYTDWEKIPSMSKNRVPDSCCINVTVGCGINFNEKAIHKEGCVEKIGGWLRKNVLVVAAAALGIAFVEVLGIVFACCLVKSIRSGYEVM

B1: Apt-CD63-Cy5 (ssDNA)
DNA: ATATACACCCCACCTCGCTCCCGTGACACTAATGCTATTTTTTTTTTTTTTTGACGCTAATAGTTAAGACGCT
binding result: binds
